Reference: US20190153106A1 (TRUSTEES OF BOSTON UNIVERSITY, published 2019)
Where “and” joins values, the source holds several entries; their conditions need not be identical. Equal values may be shown once. Read-outs that look alike come from different tables or passages of the source.

T1: antigenic peptide (AP) EMKSRWNWGS (human/monkey/rat DEspR epitope)
T1 construct: also called 6G8G7 antigenic peptide; partial peptide
T1 peptide: EMKSRWNWGS

T2: rat DEspR (rat)
T2 chain: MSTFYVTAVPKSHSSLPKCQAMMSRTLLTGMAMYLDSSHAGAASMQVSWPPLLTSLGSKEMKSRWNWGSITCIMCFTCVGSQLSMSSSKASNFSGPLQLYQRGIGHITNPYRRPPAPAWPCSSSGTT

B1: human DEspR (dual endothelin-1/VEGF signal peptide receptor) (receptor)
chain: MTMFKGSNEMKSRWNWGSITCIICFTCVGSQLSMSSSKASNFSGPLQLYQRELEIFIVLTDVPNYRLIKENSHLHTTIVDQGRTV
modifications: glycosylated (~17 kDa band, PNGase-sensitive)
notes: On intact Panc1 cells / Panc1 CSCs in the FACS assays and on HUVECs in the angiogenesis assays; In pulldowns and Western blots it came from membrane proteins of U87 CSCs and hDEspR-Cos1 permanent transfectants; also called hDEspR; DEAR

Tests used:
[1] = molecular target: T3, galectin-1 (human, UniProt P09382 2-135); experiment: Western blot of the DEspR complex
T3 construct: also called gal1; recombinant galectin-1 protein
T3 sequence (P09382 2-135 limits assumed): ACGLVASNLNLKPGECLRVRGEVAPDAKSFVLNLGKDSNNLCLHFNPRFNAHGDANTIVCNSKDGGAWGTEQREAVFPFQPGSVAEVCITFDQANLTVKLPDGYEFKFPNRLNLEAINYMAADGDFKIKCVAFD

[2] = molecular target: B1; experiment: FACS saturation binding of AF568-labelled mAb to Panc1 CSCs, 4 °C, 20 min
Method: (§1) Saturation binding curves of monoclonal antibody (mAb) binding to DEspR on Panc1 CSCs. […] Specific binding was determined by FACS analysis using 100,000 cells in 0.25 ml containing increasing concentrations of mAbs. Incubations were done at 4° C. for 20 min and immediately subjected to FACS analysis on a BDTM LSRII Flow cytometer. Each data point was performed in duplicate.

[3] = molecular target: B1; experiment: FACS, AF568-labelled mAb on intact DEspR+ human cells (Panc1), 4°C
Method: Binding was determined by FACS analysis.
(§2) Neutrophils (50000/well) were incubated in the absence or presence of mAbs at 37° C. × 4 hrs and live cells counted by using Trypan blue. HUVEC-dependent angiogenesis (20,000 cells/well) was performed as described in the presence or absence of mAbs. Number of polygons and number of branch points were determined after 14 hrs of incubation at 37° C. ND, not done, indeterminate, value greater than upper limit of max dose used in these experiments.

[4] = molecular target: T1, antigenic peptide (AP) EMKSRWNWGS; experiment: ELISA on antigenic peptide EMKSRWNWGS
Method: Next, the EC50 of binding to the antigenic peptide was determined by ELISA, as shown in FIGS. 35A-35B, comparing two IgG4 6g8g7 humanized antibody candidates (including humab1 comprising SEQ ID NOs: 63 and 65 and humab2 comprising SEQ ID NO: 65 with substitutions in SEQ ID NO: 26 at Kabat residues 83V and 85Y to give 83D and 85Y), and the IgG1 6G8G7humanized monoclonal antibody (comprising SEQ ID NOs: 61 and 65), and 6G8G7 murine monoclonal antibody (“6g8 mumab”).
as §2

[5] = molecular target: B1; experiment: saturation binding by FACS, AF568-labelled mAb on DEspR+ Panc1 cells
Method: as §1
Fully human VH5/VK1 has a slightly better Kd than VH3/VK2 fully human composite antibodies. […] (FIG. 16).

[6] = molecular target: T1, antigenic peptide (AP) EMKSRWNWGS; experiment: ELISA on antigenic peptide EMKSRWNWGS
[7] = molecular target: B1; experiment: cell-based or functional assay
[8] = molecular target: T2, rat DEspR; experiment: cell-based or functional assay
[9] = molecular target: B1; experiment: cell-based or functional assay; remark: listed apart in the source
[10] = molecular target: B1; experiment: FACS displacement of AF568-7C5B2 (10 µg/ml) from Panc1 CSCs; peptide at 100x molar excess
Method: 50,000 cells were reacted with 10 µg/ml AF568-labelled 7C5B2 monoclonal antibody (mAb) at 4° C. for 20 min in the absence or presence of the different peptides at 100× molar excess. Samples were immediately subjected to FACS analysis for quantification of DEspR+ cells. Samples were run in duplicates. AngII, angiotensinII; ET1, endothelin-1 (DEspR ligand); sp17, VEGFsp17 (DEspR ligand); sp26, VEGFsp26 (DEspR ligand). Data presented as Mean±SD.

| Binder | Bmax (% + cells) [3] [% + cells] | EC50 [3] | Bmax (A450) [4] [A450] | EC50 [4] [µg/mL] | Human Angiogenesis assay (HUVECs): branch points, IC50 [7] [µg/mL] | Human Angiogenesis assay (HUVECs): polygons, IC50 [7] [µg/mL] | Rat Neutrophil survival, IC50 [8] [µg/mL] | other results |
| --- | --- | --- | --- | --- | --- | --- | --- | --- |
| B1 |  |  |  |  |  |  |  | binding result [1]: binds |
| 6G8G7 murine anti-DEspR monoclonal antibody (antibody, V domains shown, Mouse hybridoma antibody, detected with anti-mouse IgG2b; also called 6g8 mumab; 6g8-mumab) VH: EVQLQESGGGLVQPGGSLKLSCAASGFDFSRYWMSWVRQAPGKGLEWIGEINPDSSTINYTPSLKDKFIISRDTAKKTLYLQMSKVRSEDTALYYCARHGRGMDYWSQGTSVTVSS VL: DIVLTQTNQIMSASVGDRVSVTCKASQNVDSNVAWYQQKPGHSPKALIYSASYRYSRVPDRITGSGSGTDFTLTITNVQSKDLADYFCQQYHSYPLLAFGAGTKLELKR | 35.6 | 5.39 µg/mL and 178 nM | 6.36 | 2.96 | > 30 | > 30 | > 30 | Kd [2]: 5.2 µg/mL; Kd [5]: ~5.2 µg/mL; EC50 [6]: 4.96 µg/mL |
| MNFLLSWVHWSLALLLYLHHAKWSQA (ligand) [VEGFsp26 (VEGF signal peptide 26)] |  |  |  |  |  |  |  | inhibition of HUVEC angiogenesis, IC50 based on total tube length [9]: 1.9 nM |
| CSCSSLMDKECVYFCHLDIIW (ligand, UniProt P05305 53-73, looked up, also called ET1; ET-1) [endothelin-1] |  |  |  |  |  |  |  | binding result [10]: binds |
| 6g8^IgG4 humab1 (6g8g7-derived IgG4 humanized monoclonal antibody 1) (antibody, Hinge-stabilized (S228P) human IgG4 / human kappa, transiently expressed in HEK293; AF568-labelled in the FACS assays; also called 6G8IgG4 humanized monoclonal antibody 1 (mAb 1); lead candidate humab) heavy: not shown light: DIVLTQSPDILSVSLGERATVNCKASQNVDSNVAWYQQKPGHPPKLLIYSASYRYSRVPDRISGSGSGTDFTLTISNLQAEDVAVYYCQQYHSYPLLAFGAGTKLELKRTVAAPSVFIFPPSDEQLKSGTASVVCLLNNFYPREAKVQWKVDNALQSGNSQESVTEQDSKDSTYSLSSTLTLSKADYEKHKVYACEVTHQGLSSPVTKSFNRGEC | 31.5 | ~4.3 nM and 0.64 µg/mL | 2.62 | 11.7 | 4.3 | 2.6 | 1.16 |  |
| 6g8^IgG1 humab1 (IgG1 6G8G7 humanized monoclonal antibody) (antibody, Human IgG1 / human kappa) heavy: not shown light: DIVLTQSPDILSVSLGERATVNCKASQNVDSNVAWYQQKPGHPPKLLIYSASYRYSRVPDRISGSGSGTDFTLTISNLQAEDVAVYYCQQYHSYPLLAFGAGTKLELKRTVAAPSVFIFPPSDEQLKSGTASVVCLLNNFYPREAKVQWKVDNALQSGNSQESVTEQDSKDSTYSLSSTLTLSKADYEKHKVYACEVTHQGLSSPVTKSFNRGEC | 21.6 | 1.3 µg/mL and 42.9 nM | 3.09 | 13.4 | 10.4 | 9.1 | 6.98 |  |
| 7C5B2 mouse anti-human DEspR monoclonal antibody (antibody, V domains shown, Mouse hybridoma antibody raised against the 9-aa N-terminal peptide of human DEspR; IgG2b was used as its isotype control; AF568-labelled in the FACS and internalization assays; also called 7C5-murine monoclonal antibody; HV2KV2) VH: QVQLKESGPGLVAPSQSLSITCTVSGFSLKSYAVSWVRQPPGKGLEWLGVIWGDGSTDYHSALISRLSISKDNSKSQFFLRLNSLQTDDTATYYCARGTGTGFAYWGQGTLVTVSA VL: DVVMTQTPLSLPVSLGDQASISCRSSQSLVHSNGNTYLHWYLQKPGQSPKLLIYKVSNRFSGVPDRFSGSGSGTDFTLKISRVEAEDLGIYFCSQCTHIPWTFGGGTNLEIK |  |  |  |  |  |  |  | Kd [2]: 5.2 µg/mL; Kd [5]: ~5.2 µg/mL |
| MNFLLSWVHWSLALLLY (ligand) [VEGFsp17 (VEGF signal peptide 17)] |  |  |  |  |  |  |  | stimulation of HUVEC angiogenesis, EC50 based on total tube length [9]: 1.98 nM |
